The target of the test is T1, N-terminal biotinylated ubiquitin (UniProt P0CG48 1-76, biotin on the N-terminus).
T1 construct: also called Bio-Ub; free ubiquitin peptide; source: bought: BostonBiochem (Catalog No. UB-570)
Description: pull-down; 5 μg His-tagged protein incubated with 1 μg biotinylated molecule (H4ac peptide or Ub) in 50 mM Tris pH 7.5, 150 mM NaCl, 0.1% NP-40, 2 h at 4 °C; captured on streptavidin-coated beads; immunoblot with anti-V5. Conditions: both partners purified. For orientation: Immunoblotting shows a protein as a band on a membrane.

Data on 1 molecule can be found in article PMC6818353, “Diversified Application of Barcoded PLATO (PLATO-BC) Platform for Identification of Protein Interactions” (Genomics, Proteomics & Bioinformatics, 2019).

B1: V5-His6-tagged RIOK3 protein, purified from E. coli (natural protein, human, UniProt O14730 1-519, looked up)
chain: MDLVGVASPEPGTAAAWGPSKCPWAIPQNTISCSLADVMSEQLAKELQLEEEAAVFPEVAVAEGPFITGENIDTSSDLMLAQMLQMEYDREYDAQLRREEKKFNGDSKVSISFENYRKVHPYEDSDSSEDEVDWQDTRDDPYRPAKPVPTPKKGFIGKGKDITTKHDEVVCGRKNTARMENFAPEFQVGDGIGMDLKLSNHVFNALKQHAYSEERRSARLHEKKEHSTAEKAVDPKTRLLMYKMVNSGMLETITGCISTGKESVVFHAYGGSMEDEKEDSKVIPTECAIKVFKTTLNEFKNRDKYIKDDFRFKDRFSKLNPRKIIRMWAEKEMHNLARMQRAGIPCPTVVLLKKHILVMSFIGHDQVPAPKLKEVKLNSEEMKEAYYQTLHLMRQLYHECTLVHADLSEYNMLWHAGKVWLIDVSQSVEPTHPHGLEFLFRDCRNVSQFFQKGGVKEALSERELFNAVSGLNITADNEADFLAEIEALEKMNEDHVQKNGRKAASFLKDDGDPPLLYDE
notes: also called V5-fused RIOK3; pET-DEST42-RIOK3; source: E. coli DE3 strain, purified
On to B1, for which the binding result is given as “binds”.
